Results from article PMC5500810, “Identification and characterization of Nanobodies targeting the EphA4 receptor” (The Journal of Biological Chemistry, 2017).
Like-named read-outs stand apart in the source and are kept apart here.

Experiments:
[1] = biological target: T1, human EphA4-Fc (R&D Systems) (Homo sapiens, UniProt P54764); assay: co-IP; Nb on anti-HA magnetic Dynabeads used to capture recombinant EphA4; EphA4 detected with N-terminal anti-EphA4 antibody; conditions: both partners purified
T1 construct: EphA4, human; the results call it 'full-length recombinant' receptor, the methods an EphA4-hFc fusion protein from R&D Systems; also called hEphA4-Fc; EphA4-hFc; source: bought: R&D Systems
T1 sequence (P54764 20-547): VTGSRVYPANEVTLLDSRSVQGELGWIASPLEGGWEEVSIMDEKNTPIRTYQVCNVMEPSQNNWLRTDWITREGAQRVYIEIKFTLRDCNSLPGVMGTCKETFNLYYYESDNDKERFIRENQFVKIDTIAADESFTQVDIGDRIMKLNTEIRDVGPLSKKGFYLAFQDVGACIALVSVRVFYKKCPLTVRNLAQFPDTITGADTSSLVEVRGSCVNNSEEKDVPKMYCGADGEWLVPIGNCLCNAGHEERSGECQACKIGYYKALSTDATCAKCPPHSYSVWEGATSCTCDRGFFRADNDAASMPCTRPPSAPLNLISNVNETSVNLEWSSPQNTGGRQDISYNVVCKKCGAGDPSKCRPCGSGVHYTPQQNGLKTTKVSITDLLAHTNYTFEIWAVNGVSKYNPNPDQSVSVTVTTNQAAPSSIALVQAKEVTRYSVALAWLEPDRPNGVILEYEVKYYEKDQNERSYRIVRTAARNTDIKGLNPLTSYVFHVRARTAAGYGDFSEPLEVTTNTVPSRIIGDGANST

[2] = biological target: T2, EphA4 ligand-binding domain (human, amino acids 22-203) (human, UniProt P54764, biotin on primary amines (EZ link NHS biotin) in the AlphaScreen assays only); assay: SPR; Biacore T200; EphA4 LBD amine-coupled to CM5 chip (300 RU); Nbs (1-300 nM) as analyte, 60 μl/min; 10 mM Hepes, 150 mM NaCl, 3 mM EDTA, 0.01 mM Surfactant P-20, pH 7.35; two-state model; conditions: both partners purified
T2 construct: cloned from the EphA4 Human cDNA ORF clone (Origene); His6 tag removed with murine caspase-3; Amine-coupled to the chip in SPR; biotinylated in AlphaScreen; also called EphA4 LBD; hEphA4 LBD; source: E. coli BL21 codon+ pICA2, purified (Ni-Sepharose, Source 15Q, Superdex 75); not shown: His6, N-terminal, cleaved
T2 sequence (P54764 22-203): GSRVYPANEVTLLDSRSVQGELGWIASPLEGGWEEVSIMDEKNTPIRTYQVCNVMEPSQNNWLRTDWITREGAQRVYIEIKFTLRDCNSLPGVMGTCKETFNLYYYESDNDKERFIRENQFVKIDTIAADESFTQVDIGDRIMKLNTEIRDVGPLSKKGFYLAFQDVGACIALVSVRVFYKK

[3] = biological target: T3, mouse EphA4-Fc (R&D Systems) (mouse, UniProt Q03137); assay: co-IP; 2.5 μg recombinant mouse or human EphA4 protein (or recombinant ephrin-B2 as negative control) on protein G magnetic Dynabeads, 1 μg Nb overnight at 4 °C, PBS washes; Nb detected with anti-HA; conditions: both partners purified
T3 construct: EphA4, mouse; the results call it 'full-length recombinant' receptor, the methods an EphA4-hFc fusion protein from R&D Systems; also called mEphA4-Fc; EphA4-hFc (mouse); source: bought: R&D Systems
T3 sequence (Q03137 20-547): as the sequence (P54764 20-547) above, with P59A, N121S, V124G, R250Q, S251N, T270S, K378R, N406S counted along it

[4] = biological target: T4, mouse recombinant EphA3 (Fc-tagged; R&D Systems) (mouse, UniProt P29319); assay: AlphaScreen or HTRF; biotinylated Nbs (100 nM) with subhooking concentrations (10-100 nM) of mouse Fc-tagged Eph receptors; anti-IgG AlphaLISA acceptor and streptavidin donor beads; 50 mM Hepes, 100 mM NaCl, 0.1% Triton, 0.1% BSA; room temperature; conditions: both partners purified
T4 construct: EphA3, mouse, recombinant, Fc-tagged; source: bought: R&D Systems
T4 sequence (P29319 21-540): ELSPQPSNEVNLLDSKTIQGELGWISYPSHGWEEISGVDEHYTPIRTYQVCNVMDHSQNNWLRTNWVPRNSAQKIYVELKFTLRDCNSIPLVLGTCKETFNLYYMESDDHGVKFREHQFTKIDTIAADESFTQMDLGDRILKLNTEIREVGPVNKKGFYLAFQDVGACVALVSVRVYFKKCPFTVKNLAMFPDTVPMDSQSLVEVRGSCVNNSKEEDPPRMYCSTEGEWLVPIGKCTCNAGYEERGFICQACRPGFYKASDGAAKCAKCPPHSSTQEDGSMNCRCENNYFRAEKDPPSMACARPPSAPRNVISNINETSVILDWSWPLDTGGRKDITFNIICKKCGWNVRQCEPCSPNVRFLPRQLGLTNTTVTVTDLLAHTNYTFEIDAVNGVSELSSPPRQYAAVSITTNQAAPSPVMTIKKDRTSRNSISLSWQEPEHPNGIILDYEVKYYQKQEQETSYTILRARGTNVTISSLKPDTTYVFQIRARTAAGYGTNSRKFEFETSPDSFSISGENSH

[5] = biological target: T5, mouse recombinant EphA7 (Fc-tagged; R&D Systems) (mouse, UniProt Q61772); assay: as above; conditions: both partners purified
T5 construct: EphA7, mouse, recombinant, Fc-tagged; source: bought: R&D Systems
T5 sequence (Q61772 28-555): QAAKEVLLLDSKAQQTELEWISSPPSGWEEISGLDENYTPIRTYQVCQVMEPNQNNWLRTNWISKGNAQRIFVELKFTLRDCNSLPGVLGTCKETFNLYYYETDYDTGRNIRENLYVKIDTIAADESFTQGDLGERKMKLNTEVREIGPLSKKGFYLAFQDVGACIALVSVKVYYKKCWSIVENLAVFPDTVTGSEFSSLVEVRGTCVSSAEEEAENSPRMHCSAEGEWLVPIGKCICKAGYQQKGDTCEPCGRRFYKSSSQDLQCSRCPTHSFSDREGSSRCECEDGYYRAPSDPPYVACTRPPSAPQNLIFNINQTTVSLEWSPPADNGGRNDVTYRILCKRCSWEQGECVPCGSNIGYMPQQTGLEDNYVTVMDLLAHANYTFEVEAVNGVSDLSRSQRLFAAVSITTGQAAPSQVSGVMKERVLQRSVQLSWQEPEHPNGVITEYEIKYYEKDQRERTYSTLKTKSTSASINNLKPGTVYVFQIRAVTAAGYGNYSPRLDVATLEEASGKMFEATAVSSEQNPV

[6] = biological target: T2, EphA4 ligand-binding domain (human, …)
[7] = biological target: T6, ephrin-B2 (Fc-tagged; R&D Systems) (UniProt P52799); assay: co-IP; 2.5 μg recombinant mouse or human EphA4 protein (or recombinant ephrin-B2 as negative control) on protein G magnetic Dynabeads, 1 μg Nb overnight at 4 °C, PBS washes; Nb detected with anti-HA; conditions: both partners purified
T6 construct: ephrin-B2, recombinant, Fc-tagged (R&D Systems); also called recombinant ephrin-B2; ephrin-B2 ligand; source: bought: R&D Systems
T6 sequence (P52799 28-229): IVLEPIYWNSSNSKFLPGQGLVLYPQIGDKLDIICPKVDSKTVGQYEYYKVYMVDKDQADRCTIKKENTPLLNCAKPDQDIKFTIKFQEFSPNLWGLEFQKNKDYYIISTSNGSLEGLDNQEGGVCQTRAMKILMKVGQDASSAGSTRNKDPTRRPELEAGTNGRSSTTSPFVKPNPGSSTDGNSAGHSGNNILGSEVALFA

[8] = biological target: T1, human EphA4-Fc (R&D Systems); assay: SPR; Biacore T200; EphA4-hFc (human or mouse) captured (~500 RU) on anti-human Fc antibody; Nbs as analyte; 10 mM Hepes, 150 mM NaCl, 3 mM EDTA, 0.01 mM Surfactant P-20, pH 7.35; 1:1 or two-state model; conditions: both partners purified
[9] = biological target: T3, mouse EphA4-Fc (R&D Systems); assay: as above; conditions: both partners purified
[10] = biological target: T1, human EphA4-Fc (R&D Systems); assay: co-IP; 2.5 μg recombinant mouse or human EphA4 protein (or recombinant ephrin-B2 as negative control) on protein G magnetic Dynabeads, 1 μg Nb overnight at 4 °C, PBS washes; Nb detected with anti-HA; conditions: both partners purified
[11] = biological target: T3, mouse EphA4-Fc (R&D Systems); assay: co-IP; Nb on anti-HA magnetic Dynabeads used to capture recombinant EphA4; EphA4 detected with N-terminal anti-EphA4 antibody; conditions: both partners purified
[12] = biological target: T7, mouse recombinant EphA6 (Fc-tagged; R&D Systems) (mouse, UniProt Q62413); assay: AlphaScreen or HTRF; biotinylated Nbs (100 nM) with subhooking concentrations (10-100 nM) of mouse Fc-tagged Eph receptors; anti-IgG AlphaLISA acceptor and streptavidin donor beads; 50 mM Hepes, 100 mM NaCl, 0.1% Triton, 0.1% BSA; room temperature; conditions: both partners purified
T7 construct: EphA6, mouse, recombinant, Fc-tagged; source: bought: R&D Systems
T7 sequence (Q62413 23-549): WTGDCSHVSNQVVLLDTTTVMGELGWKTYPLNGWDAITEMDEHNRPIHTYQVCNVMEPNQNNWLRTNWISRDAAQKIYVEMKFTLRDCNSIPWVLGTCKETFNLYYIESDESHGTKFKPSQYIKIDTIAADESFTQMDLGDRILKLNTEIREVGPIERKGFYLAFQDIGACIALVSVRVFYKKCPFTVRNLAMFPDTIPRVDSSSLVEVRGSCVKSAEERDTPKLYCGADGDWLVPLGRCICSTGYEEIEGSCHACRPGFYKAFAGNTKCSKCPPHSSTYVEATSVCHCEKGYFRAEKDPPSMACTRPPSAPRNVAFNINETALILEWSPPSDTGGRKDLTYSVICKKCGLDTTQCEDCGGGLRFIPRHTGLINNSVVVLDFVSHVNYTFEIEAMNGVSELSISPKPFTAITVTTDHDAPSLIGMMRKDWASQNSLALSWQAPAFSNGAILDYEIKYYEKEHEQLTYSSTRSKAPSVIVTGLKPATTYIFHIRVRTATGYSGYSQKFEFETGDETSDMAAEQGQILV

[13] = biological target: T8, mouse recombinant EphA8 (Fc-tagged; R&D Systems) (mouse, UniProt O09127); assay: as above; conditions: both partners purified
T8 construct: EphA8, mouse, recombinant, Fc-tagged; source: bought: R&D Systems
T8 sequence (O09127 27-541): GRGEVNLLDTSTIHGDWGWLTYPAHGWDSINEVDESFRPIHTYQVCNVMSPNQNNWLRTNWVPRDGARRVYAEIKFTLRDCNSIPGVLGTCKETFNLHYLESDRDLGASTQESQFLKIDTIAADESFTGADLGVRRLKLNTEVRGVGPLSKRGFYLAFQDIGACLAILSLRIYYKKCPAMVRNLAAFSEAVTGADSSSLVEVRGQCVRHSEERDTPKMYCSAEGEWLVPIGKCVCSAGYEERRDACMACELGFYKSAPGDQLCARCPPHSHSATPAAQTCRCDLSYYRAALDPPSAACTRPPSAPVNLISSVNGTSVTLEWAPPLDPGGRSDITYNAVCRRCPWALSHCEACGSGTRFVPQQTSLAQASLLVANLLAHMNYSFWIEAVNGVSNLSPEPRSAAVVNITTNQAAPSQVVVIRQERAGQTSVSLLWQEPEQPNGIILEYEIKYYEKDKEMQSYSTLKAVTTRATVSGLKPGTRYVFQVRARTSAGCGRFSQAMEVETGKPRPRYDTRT

[14] = biological target: T2, EphA4 ligand-binding domain (human, …); assay: cell-based or functional assay
[15] = biological target: T9, human EphA7 (recombinant, EphA7/ephrin-A5 competition assay) (Homo sapiens, UniProt Q15375); assay: AlphaScreen or HTRF; competition: human EphA7 (3 nM) preincubated 1 h with increasing Nb, then biotinylated His-tagged human ephrin-A5 (30 nM); anti-IgG acceptor and streptavidin donor beads; 50 mM Hepes, 100 mM NaCl, 0.1% Triton, 0.1% BSA; conditions: both partners purified
T9 construct: EphA7, human; Probably an Fc chimera of the extracellular domain, since anti-IgG acceptor beads were used
T9 sequence (Q15375 28-998): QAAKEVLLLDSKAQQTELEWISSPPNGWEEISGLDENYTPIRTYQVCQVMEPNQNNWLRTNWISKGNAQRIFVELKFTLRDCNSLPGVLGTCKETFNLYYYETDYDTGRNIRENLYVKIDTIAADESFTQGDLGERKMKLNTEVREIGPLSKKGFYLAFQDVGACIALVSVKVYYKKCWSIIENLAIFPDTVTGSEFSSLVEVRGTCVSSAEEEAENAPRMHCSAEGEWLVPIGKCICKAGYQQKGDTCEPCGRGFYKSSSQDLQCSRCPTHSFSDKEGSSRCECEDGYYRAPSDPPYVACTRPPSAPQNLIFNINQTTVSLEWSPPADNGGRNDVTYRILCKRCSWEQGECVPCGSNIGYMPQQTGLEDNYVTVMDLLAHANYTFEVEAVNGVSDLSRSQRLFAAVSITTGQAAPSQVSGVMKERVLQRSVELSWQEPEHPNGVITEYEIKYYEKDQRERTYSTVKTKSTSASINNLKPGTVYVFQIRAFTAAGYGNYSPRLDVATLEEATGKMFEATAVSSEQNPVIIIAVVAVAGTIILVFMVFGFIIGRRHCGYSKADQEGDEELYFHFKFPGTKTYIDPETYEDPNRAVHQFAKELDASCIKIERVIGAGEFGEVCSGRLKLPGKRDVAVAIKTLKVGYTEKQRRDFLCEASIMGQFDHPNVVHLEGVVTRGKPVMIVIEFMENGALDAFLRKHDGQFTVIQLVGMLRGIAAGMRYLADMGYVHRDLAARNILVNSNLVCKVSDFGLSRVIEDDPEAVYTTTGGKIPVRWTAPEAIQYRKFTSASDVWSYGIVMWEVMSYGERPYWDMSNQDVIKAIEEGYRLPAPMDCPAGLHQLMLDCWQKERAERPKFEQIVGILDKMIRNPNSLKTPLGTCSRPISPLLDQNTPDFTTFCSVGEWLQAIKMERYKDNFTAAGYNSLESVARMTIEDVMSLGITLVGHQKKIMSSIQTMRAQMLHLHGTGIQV

B1: Nb 57 (VHH)
VHH: QVQLQESGGGLVQPGGSLRLSCAASGFTFSSYYMYWVRQAPGKGLEWVSTINTGGGSTNYADSVKGRFIISRDNAKNTVYLQMNSLKPEDTAVYYCNAFAAGWGPDYWGQGTQVTVSS
notes: Cloned in the phagemid pMECS; Same clonal group as Nb 19; also called Nanobody 57; source: E. coli WK6, periplasmic extract, purified (His GraviTrap, Sephadex G25)
B1: binds [1]; binds [2]; binds [3]. B1: binds [4]; binds [5].

B2: Nb 16 (VHH)
VHH: QVQLQESGGGLVQPGGSLRLSCAASGFTFSNYAMSWVRQAPGKGLEWVSGINKGGGSAYYSDSVKGRFTISRDNAENTLYLQMNNLKPEDTAVYYCVIPWGLGSNEYDYWGQGTQVTVSS
B2: binds [6].

B3: Nb 90 (VHH)
VHH: QVQLQESGGGLVQPGGSLRLSCAASGFTFSSHWIYWVRQAPGKQRELVAAITSGGSTNYADSVKGRFTISRDNAKNTVFLQMNSLKPEDTAVYYCNAWGFLLGDIEDYWGQGTQVTVSS
B3: binds [6].

B4: Nb 60 (VHH)
VHH: QVQLQESGGGLVQPGGSLRLSCAASGFTFSRYWIYWVRQAPGKQRELVAAITRNGVTNYADSVKGRFTISTDDNKNTVYLQMNSLKSEDTAVYYCNAWGFLLGDIEDYWGQGTQVTVSS
notes: Cloned in the phagemid pMECS; Same clonal group as Nb 90; also called Nanobody 60; source: E. coli WK6, periplasmic extract, purified (His GraviTrap, Sephadex G25)
B4: binds [2]; binds [7]; binds [8]. B4: binds [9].

B5: Nb 71 (VHH)
VHH: QVQLQESGGGLVQPGGSLRLSCAASGFTFSSYWMYWVRQTPGKGLEWVSGINSPGSITGYADSVKGRFTISRDNAKNTLYLQMNSLKSDDTAVYYCARDLTYGGNSLRYIERGQGTQVTVSS
B5: binds [6].

B6: Nb 19 (VHH)
VHH: QVQLQESGGGLVQPGGSLRLSCAATGRNFNAYSIAWFRQAPGKEREFVASINWSGSNTYYAVAVKGRFTTSRDNAKNTVYLQMNSLKPEDTAVYYCNAFAAGWGPDYWGQGTQVTVSS
notes: Cloned in the phagemid pMECS; Same clonal group as Nb 57; also called Nanobody 19; source: E. coli WK6, periplasmic extract, purified (His GraviTrap, Sephadex G25)
B6: binds [2].

B7: Nb 22 (VHH)
VHH: QVQLQESGGGPVRAGESLRLSCTASGRAFSTYTMGWFRQAPGKERELVAVITPGGNTNYADSVKGRFTISRDDAKNTVYLQMNSLKPVDTAVYYCHVVLAVVGTGNEYDVWGQGTQVTVSS
notes: Cloned in the phagemid pMECS; also called Nanobody 22; source: E. coli WK6, periplasmic extract, purified (His GraviTrap, Sephadex G25)
For B7, the binding result [2] was “binds”, the binding result [10] was “binds” and the “fold difference in binding affinity between human and mouse EphA4” value [9] was 2 fold.

B8: Nb 10 (VHH)
VHH: QVQLQESGGGLVQAGGSLRLSCAASGRTFSSYAMGWFRQAPGTKREMIAAVTKAGTTSYANPVKGRFTISRDDAKNMVYLQMNNLKPEDSAVYYCNAISPLWDEYDFWGPGTQVTVSS
B8: binds [6].

B9: Nb 31 (VHH)
VHH: QVQLQESGGGLVQAGGSLRLSCAASGFASDAYAIGWFRQAPGTKREMIAAVTKAGATNYANPVKGRFTISRDDAKNMVYLQMNNLKPEDSAVYYCNAISPLWDEYDFWGPGTQVTVSS
notes: Cloned in the phagemid pMECS; Same clonal group as Nb 50, 10 and 53; also called Nanobody 31; source: E. coli WK6, periplasmic extract, purified (His GraviTrap, Sephadex G25)
B9: binds [11]; binds [2]; binds [10].

B10: Nb 50 (VHH)
VHH: QVQLQESGGGLVQAGGSLRLSCAASGRTFNSYAEAWFRQAPGKEREMIAAVTKAGTTNYANPVKGRFTISRDDAKNMVYLQMNNLKPEDSAVYYCNAISPLWDEYDFWGPGTQVTVSS
notes: Cloned in the phagemid pMECS; Same clonal group as Nb 31, 10 and 53; also called Nanobody 50; source: E. coli WK6, periplasmic extract, purified (His GraviTrap, Sephadex G25)
B10: binds [1]; binds [11]; binds [2]. B10: binds [4]; binds [12]; binds [5]. B10: binds [13].

B11: Nb 53 (VHH)
VHH: QVQLQESGGGVVQAGGSLRLSCAASGRAFSSYAMGWFRQAPGTKREMIAAVTRAGTTNYANPVKGRFTISRDDAKNMVYLQMNNLKPEDSAVYYCNAISPLWDEYDFWGPGTQVTVSS
notes: Cloned in the phagemid pMECS; Same clonal group as Nb 31, 50 and 10; also called Nanobody 53; source: E. coli WK6, periplasmic extract, purified (His GraviTrap, Sephadex G25)
With B11 the “IC50 of inhibition of ephrin-A1-induced EphA4 phosphorylation (PathHunter assay, EphA4-expressing U2OS cells); blocks ephrin-A1 with EphA4” value [14] was 261 nM, the binding result [11] was “binds” and the binding result [15] was “binds”.

B12: Nb 34 (VHH)
VHH: QVQLQESGGGLVQAGGSLRLSCAASGFTFSSYAMSWVRQAPGKGLEWVSGINTGGGSTYYADSVKGRFTISRDNAKNTLYLQMNSLKSEDTAVYYCVPRVGVLEGLTSFGSWGQGTQVTVSS
notes: Cloned in the phagemid pMECS; Same clonal group as Nb 47; also called Nanobody 34; source: E. coli WK6, periplasmic extract, purified (His GraviTrap, Sephadex G25)
B12: no binding (tested: 1–300 nM) [2].

B13: Nb 47 (VHH)
VHH: QVQLQESGGGLVQPGGSLRLSCAASGFTFSSYAMSWVRQAPGKGLEWVSGINTGGGSTYYADSVKGRFTISRDNAKNTLYLQMNSLKSEDTAVYYCVPRVGVLEGLTSFGSWGQGTQVTVSS
notes: Cloned in the phagemid pMECS; Same clonal group as Nb 34; also called Nanobody 47; source: E. coli WK6, periplasmic extract, purified (His GraviTrap, Sephadex G25)
B13: no binding (tested: 1–300 nM) [2].

B14: Nb 39 (VHH)
VHH: QVQLQESGGGLVQPGGSLKLSCAASGFTFSTYAMSWVRQAPGKGLEWVSRINSGGGYTWHADSVKGRFTISRDNARNTVYLQMNNLKPEDTAVYYCTNLNTGWRPEYWGQGTQVTVSS
notes: Cloned in the phagemid pMECS; also called Nanobody 39; source: E. coli WK6, periplasmic extract, purified (His GraviTrap, Sephadex G25)
In the case of B14, the “IC50 of inhibition of ephrin-A1-induced EphA4 phosphorylation (PathHunter assay, EphA4-expressing U2OS cells); blocks ephrin-A1 with EphA4” value [14] is reported as 170 nM, the binding result [11] is reported as “binds” and the binding result [15] is reported as “binds”.

B15: Nb 28 (VHH)
VHH: QVQLQESGGGLVQAGGSLRLSCAASGFTFSSNWMYWVRQAPGKGLEWVSGINSGGSSTYYSDSVKGRFTISRDNAKNTLYLQMNSLKPEDTAVYYCAKYSGSYYYRRGPGTQVTVSS
B15: binds [6].
